Measured values reported in US5780025A, “Compositions and methods for the synthesis and assay of enkephalinase” (Genentech, Inc., priority 1993, dated 1998).

T1: dansyl-Gly-Trp-Gly or dansyl-Gly-Tyr-Gly (Rattus norvegicus, UniProt P07861)
T1 construct: made in house; host or cells: human embryonic kidney (293) cells (pCISrENK); also rabbit reticulocyte lysate in vitro translation (prENKsense)
T1 sequence (P07861 1-750): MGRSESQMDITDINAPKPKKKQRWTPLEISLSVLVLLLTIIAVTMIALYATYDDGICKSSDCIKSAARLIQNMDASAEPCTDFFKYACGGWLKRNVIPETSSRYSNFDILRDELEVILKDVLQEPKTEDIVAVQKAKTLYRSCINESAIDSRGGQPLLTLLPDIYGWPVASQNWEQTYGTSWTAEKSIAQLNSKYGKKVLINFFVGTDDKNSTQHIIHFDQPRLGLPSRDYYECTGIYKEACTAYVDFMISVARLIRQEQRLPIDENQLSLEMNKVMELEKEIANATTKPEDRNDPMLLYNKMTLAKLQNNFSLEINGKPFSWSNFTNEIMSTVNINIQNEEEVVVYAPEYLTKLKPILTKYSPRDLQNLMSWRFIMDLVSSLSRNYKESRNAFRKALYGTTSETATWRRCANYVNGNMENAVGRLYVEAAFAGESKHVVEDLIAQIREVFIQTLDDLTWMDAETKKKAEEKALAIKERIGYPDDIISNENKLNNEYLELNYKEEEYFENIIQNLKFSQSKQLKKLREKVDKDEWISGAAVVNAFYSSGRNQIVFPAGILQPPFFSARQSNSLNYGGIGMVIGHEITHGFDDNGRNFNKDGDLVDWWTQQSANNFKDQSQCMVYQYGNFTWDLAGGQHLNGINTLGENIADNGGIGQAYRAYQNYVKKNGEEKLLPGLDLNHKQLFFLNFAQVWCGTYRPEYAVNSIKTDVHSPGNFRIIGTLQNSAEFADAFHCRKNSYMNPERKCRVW

T2: ^3 H-(DAla^2, Leu^5)enkephalin (Rattus norvegicus, UniProt P07861)
T2 construct: Rat kidney enkephalinase was purified to apparent homogeneity; from tissue; host or cells: rat kidney (male rats, membrane fraction, Triton X-100 solubilised)
T2 sequence (P07861 1-750): T1 sequence (P07861 1-750)

B1: prENKsense: in vitro transcription/translation product of plasmid prENKsense (full length rat enkephalinase cDNA), rabbit reticulocyte lysate (protein, UniProt P07861 1-750, looked up)
chain: T1 sequence (P07861 1-750)
modifications: full-length in vitro translated
notes: in vitro transcription/translation product of plasmid prENKsense (full length rat enkephalinase cDNA), rabbit reticulocyte lysate
B2: rat kidney enkephalinase: enkephalinase purified from rat kidney, fractions from the last Concanavalin-A step, about 90 Kdalton protein (protein, UniProt P07861 2-750, looked up)
Neprilysin: GRSESQMDITDINAPKPKKKQRWTPLEISLSVLVLLLTIIAVTMIALYATYDDGICKSSDCIKSAARLIQNMDASAEPCTDFFKYACGGWLKRNVIPETSSRYSNFDILRDELEVILKDVLQEPKTEDIVAVQKAKTLYRSCINESAIDSRGGQPLLTLLPDIYGWPVASQNWEQTYGTSWTAEKSIAQLNSKYGKKVLINFFVGTDDKNSTQHIIHFDQPRLGLPSRDYYECTGIYKEACTAYVDFMISVARLIRQEQRLPIDENQLSLEMNKVMELEKEIANATTKPEDRNDPMLLYNKMTLAKLQNNFSLEINGKPFSWSNFTNEIMSTVNINIQNEEEVVVYAPEYLTKLKPILTKYSPRDLQNLMSWRFIMDLVSSLSRNYKESRNAFRKALYGTTSETATWRRCANYVNGNMENAVGRLYVEAAFAGESKHVVEDLIAQIREVFIQTLDDLTWMDAETKKKAEEKALAIKERIGYPDDIISNENKLNNEYLELNYKEEEYFENIIQNLKFSQSKQLKKLREKVDKDEWISGAAVVNAFYSSGRNQIVFPAGILQPPFFSARQSNSLNYGGIGMVIGHEITHGFDDNGRNFNKDGDLVDWWTQQSANNFKDQSQCMVYQYGNFTWDLAGGQHLNGINTLGENIADNGGIGQAYRAYQNYVKKNGEEKLLPGLDLNHKQLFFLNFAQVWCGTYRPEYAVNSIKTDVHSPGNFRIIGTLQNSAEFADAFHCRKNSYMNPERKCRVW
B3: pCISrENK: rat enkephalinase expressed from plasmid pCISrENK in human embryonic kidney (293) cells and purified (protein, UniProt P07861 2-750, looked up)
Neprilysin: B2 Neprilysin
modifications: recombinant, expressed in 293 cells
notes: rat enkephalinase expressed from plasmid pCISrENK in human embryonic kidney (293) cells and purified
B4: Enkephalinase: Enkephalinase produced by the method of the instant invention, essentially pure (protein, UniProt P07861 2-750, looked up)
Neprilysin: B2 Neprilysin

How the values were obtained:
[1] = biological target: T1, dansyl-Gly-Trp-Gly or dansyl-Gly-Tyr-Gly; test: Enkephalinase activity of expressed rat enkephalinase material; type: biochemical; settings: rat enkephalinase cDNA expression products
Text: An assay using novel fluorescent substrates for enkephalinase was developed to assess whether enkephalinase is expressed. This assay is based on the disappearance of energy transfer between a tryptophan or a tyrosine residue and the 5-dimethylaminonaphthalene-1-sulfonyl group (dansyl) in the substrates dansyl-Gly-Trp-Gly or dansyl-Gly-Tyr-Gly upon hydrolysis of their Gly-Trp or Gly-Tyr amide bond by enkephalinase. No significant difference in Km or kcat values were found for dansyl-Gly-Trp-Gly and dansyl-Gly-Tyr-Gly as the active site of enkephalinase appears to accommodate tryptophan residues similarly to tyrosine. The tryptophan and tyrosine containing substrates can be used for continuous recording of enkephalinase activity. […]
Fluorescence measurements were made using a Perkin Elmer, model 650-10S spectrofluorometer, equipped with a temperature controlled cell-holder, maintained at 37° C. […] The 600 μl mixture was transferred into a quartz cuvette, and fluorescence measured. […] The fluorescence in the incubation media could thus be related to the amounts of hydrolyzed substrates. […] Ten μl of purified rat kidney enkephalinase was added and the increase in tryptophan or tyrosine fluorescence was continuously monitored (excitation=280 nm, emission=360 nm for tryptophan, excitation 277, emission 315 for tyrosine). […] Under these conditions, tryptophan fluorescence was stable for over 2 hr.

[2] = biological target: T2, ^3 H-(DAla^2, Leu^5)enkephalin; test: Assay of enkephalinase activity with tritiated enkephalin substrate (Llorens et al. 1982); type: biochemical
Text: As used herein, enkephalinase or enkephalinase derivatives refers to proteins which are enzymatically active or are immunologically cross-reactive with enzymatically active enkephalinase. Enzymatically functional enkephalinase is capable of cleaving the Gly^3 -Phe^4 amide bond of ^3 H-(DAla^2, Leu^5)enkephalin in an assay as described by Llorens et al. (1982).
"Essentially free from" or "essentially pure" when used to describe the state of enkephalinase produced by the invention means free of protein or other materials normally associated with enkephalinase in its in vivo physiological milieu as for example when enkephalinase is obtained from blood and/or tissues by extraction and purification.
Enkephalinase activity was measured as described by Llorens et al. (1982) using ^3 H-(DAla^2, Leu^5)enkephalin as a substrate. […]

Molecule | enkephalinase activity of expressed material [1] | further results
B1 | did not have detectable activity | –
B2 | – | enkephalinase activity, specific activity ([2]; six 1 ml fractions from the last Concanavalin-A step, measured at 25° C., ^3 H-(DAla^2, Leu^5)enkephalin as substrate): 27.4 nmole/mg protein/min
B3 | biologically active | –
B4 | – | specific activity ([2]; 20 nM ^3 H-(DAla^2, Leu^5)enkephalin as substrate, 25° C., 50 mM pH 7.4 HEPES buffer containing 0.02% Tween 20): at least 25 nmole/mg protein/min
